Results from patent US20120129778A1 (GlaxoSmithKline, published 2012).

Tests used:
[1] = molecular target: T1, recombinant human TGF-β RII/Fc chimera protein (R&D systems, cat no. 341-BR) (human, UniProt P37173 23-166); test: ELISA, plate coated with human TGF-β RII/Fc, dAb supernatant, anti-FLAG detection
T1 construct: extracellular domain; Bought protein, expressed in the mouse myeloma line NS0; also called hTGFb-RII/Fc; hTFGβ-RII-Fc; not shown: Fc region of human IgG1
Experimental: dAb clones that bound human TGF-β RII/Fc were identified by an ELISA. 96-well MAXISORP™ immuno plates (Nunc, Denmark) were coated with human TGF-β RII/Fc overnight at 4° C. The wells were washed three times with PBST and then blocked with 1% TWEEN™ in PBS (1% TPBS) for 1 hour at room temperature. The block was removed and a 1:1 mixture of 1% TPBS and dAb supernatant was added for 1 hour at room temperature. The plate was washed with three times with PBST and the detection antibody (Monoclonal anti-FLAG M2-peroxidase antibody, Sigma-aldrich, UK) was added and incubated for 1 hour at room temperature. The plates were developed using a colourimetric substrate (SUREBLUE™ 1-component TMB Microwell Peroxidase solution, KPL, Maryland, USA) and the optical density (OD) measured at […], the OD₄₅₀ being proportional to the amount of bound detection antibody.

[2] = molecular target: T1, recombinant human TGF-β RII/Fc chimera …; test: SPR (BIACORE 3000), hTGFb-RII/Fc coupled to a CM5 chip, co-inject; injection 1 = DOM23h-437-6 alone at 100 nM
Experimental: (§1) The SPR experiments were performed on a BIACORE™ 3000 instrument (BIACORE™, GE […]®, Sweden). hTGFb-RII/Fc antigen at 50 ug/ml in 10 mM sodium acetate buffer, pH 4 (BIACORE™, GE […]®, Sweden) was coupled to a CM5 sensor chip (BIACORE™, GE […]®, Sweden), according to the manufacturer's instructions. Approximately 5500 RUs of antigen were coupled. A blank flow cell was used as a reference. Purified dAbs were diluted in HBS-EP buffer (BIACORE™, GE […]®, Sweden) and flowed over the antigen-coated and blank flow cells at a rate of 30 μl/minute using the co-inject command. The coinject command allows the injection of a second sample immediately after the first one. The first injection consisted of a single dAb and the second injection consisted of a mixture of the first dAb and a second dAb. All dAbs were used at concentrations high enough to bind the antigen surface with maximal capacity. If the maximal binding capacity of the antigen surface by the first dAb can be exceeded by injecting the mixture of the two dAbs, the second dAb is likely to […] a different binding site or epitope on the antigen. If no further binding is observed following the second injection, then the two dAbs are likely to compete for the same antigen binding site. […]

[3] = molecular target: T1, recombinant human TGF-β RII/Fc chimera …; test: SPR (BIACORE 3000), hTGFb-RII/Fc coupled to a CM5 chip, co-inject; injection 1 = DOM23h-437-9 alone at 100 nM
Experimental: as §1

[4] = molecular target: human TGF-β receptor type II on human cells (A549, SBE-bla HEK 293T) (human, UniProt P37173 23-567); test: cell-based or functional assay
Chain of human TGF-β receptor type II on human cells (A549, SBE-bla HEK 293T) (P37173 23-567): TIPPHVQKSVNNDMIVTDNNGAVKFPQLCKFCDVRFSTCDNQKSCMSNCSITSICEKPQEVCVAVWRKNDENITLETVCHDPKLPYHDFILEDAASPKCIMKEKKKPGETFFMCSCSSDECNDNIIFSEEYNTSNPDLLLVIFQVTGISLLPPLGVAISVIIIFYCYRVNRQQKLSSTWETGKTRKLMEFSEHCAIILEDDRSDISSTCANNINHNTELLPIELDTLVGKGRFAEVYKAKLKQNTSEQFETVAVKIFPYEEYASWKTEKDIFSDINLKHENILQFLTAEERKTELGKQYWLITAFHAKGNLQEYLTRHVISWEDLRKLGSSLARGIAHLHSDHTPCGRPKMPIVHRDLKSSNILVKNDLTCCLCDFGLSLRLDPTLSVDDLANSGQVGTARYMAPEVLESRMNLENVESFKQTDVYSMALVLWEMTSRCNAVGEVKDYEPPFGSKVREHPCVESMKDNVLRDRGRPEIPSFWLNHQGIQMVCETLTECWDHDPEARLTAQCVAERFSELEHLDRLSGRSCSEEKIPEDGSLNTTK

[5] = molecular target: T1, recombinant human TGF-β RII/Fc chimera …; test: SPR (BIACORE 3000), hTGFb-RII/Fc coupled to a CM5 chip, co-inject; injection 2 = mixture of DOM23h-437-6 (100 nM) and DOM23h-439-6 (500 nM) on a surface saturated with DOM23h-437-6
Experimental: as §1

[6] = molecular target: T1, recombinant human TGF-β RII/Fc chimera …; test: SPR (BIACORE 3000), hTGFb-RII/Fc coupled to CM5 chip, 100 nM dAb co-injected with 100 nM DOM23h-437-9 (competitor)
Experimental: as §1

[7] = molecular target: T1, recombinant human TGF-β RII/Fc chimera …; test: SPR (BIACORE 3000), hTGFb-RII/Fc coupled to a CM5 chip, co-inject; injection 2 = mixture of DOM23h-437-6 (100 nM) and DOM23h-271-3 (500 nM) on a surface saturated with DOM23h-437-6
Experimental: as §1

T1 sequence (P37173 23-166, change not shown): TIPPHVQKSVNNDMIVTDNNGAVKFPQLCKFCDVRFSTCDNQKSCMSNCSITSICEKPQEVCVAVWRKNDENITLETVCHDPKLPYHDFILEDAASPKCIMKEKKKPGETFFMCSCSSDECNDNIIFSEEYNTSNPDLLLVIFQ

Row | Binder | binding result [1] | other results
1 | DOM23h-437 (other, VH dAb) VH: EVQLLESGGGLVQPGGSLRLSCAASGFTFSDYRMWWVRQAPGKGLEWVSAIDSQGHTTYYADSVKGRFTISRDNSKNTLYLQMNSLRAEDTAVYYCAKYGGYFDYWGQGTLVTVSS | binds | –
2 | DOM23h-437-6 (other, VH dAb) VH: EVQLLESGGGLVQPGGSLRLSCATSGFTFSDYRMWWVRQAPGKGLEWVSAIDSQGHTTYYADSVKGRFTISRDNSKNTLYLQMNSLRAEDTAVYYCAKYGGYFDYWGQGTLVTVSS | – | binding result [2]: binds
3 | DOM23h-251 (other, Naive dAb) EVQLLESGGGLVQPGGSLRLSCAASGFTFSDYDMWWVRQAPGKGLEWVSKITQKGDFTYYADSVKGRFTISRDNSKNTLYLQMNSLRAEDTAVYYCAKDATHFDYWGQGTLVTVSS | binds | –
4 | DOM23h-435 (other, Naive dAb) EVQLLESGGGLVQPGGSLRLTCAASGFTFTDDRMWWVRQAPGKGLEWVSAIDPQGQHTYYADSVKGRFTISRDNSKNTLYLQMNSLRAEDTAVYYCAKHNSSFDYWGQGTLVTVSS | binds | –
5 | DOM23h-437-9 (other, VH dAb; also called DOM437-9) VH: EVQLLESGGGLVQPGGSLRLSCATSGFTFSDYRMWWVRQAPGKGLEWVSAIDSQGHTTYYANSVRGRFTISRDNSKNTLYLQMNSLRAEDTAVYYCAKYGGYFDYWGQGTLVTVSS | – | binding result [3]: binds
6 | DOM23h-33 (other, Naive dAb (immunoglobulin single variable domain)) EVQLLESGGGLVQPGGSLRLSCAASGFTFSQYRMWWVRQAPGKGLEWVSAIAPSGDNTYYADSVKGRFTISRDNSKNTLYLQMNSLRAEDTAVYYCAKHRTSFDYWGQGTLVTVSS | binds | –
7 | DOM23h-440 (other, Naive dAb) EVQLLESGGGLVQPGGSLRLSCAASGFTFTDDRMWWVRQAPGKGLEWVSAIDPQGQHTYYADSVKGRFTISRDNSKNTLYLQMNSLRAEDTAVYYCAKELLSFDYWGQGTLVTVSS | binds | –
8 | DOM23h-436 (other, Naive dAb) EVQLLESGGGLVQPGGSLRLSCAASGFTFSDYKMGWVRQAPGKGLEWVSSIWPNGGLTYYADSVKGRFTISRDNSKNTLYLQMNSLRAEDTAVYYCAKDHMGFDYWGQGTLVTVSS | binds | –
9 | DOM23h-348 (other, Naive dAb) EVQLLESGGGLVQPGGSLRLSCAASGFTFSDYDMAWARQAPGKGLEWVSRISHSGYSTYYADSVKGRFTISRDNSKNTLYLQMNSLRAEDTAVYYCAKRSWDGVHAQFDYWGQGTLVTVSS | binds | –
10 | DOM23h-262-6 (other) VH: EVQLLESGGGLVQPGGSLRLSCAASGFTFFNYEMAWARQAPGKGLEWVSLISAEGTRTYYANSVKGRFTISRDNSKNTLYLQMNSLRAEDTAVYYCAKRRDASMGHTTRRFDHWGQGTLVTVSS | – | potency in the A549 IL-11 release assay relative to DOM23h-262 [4]: 54 fold
11 | DOM23h-262 (other, Domain antibody (dAb), human immunoglobulin single variable domain, soluble monomer) VH: EVQLLESGGGLVQPGGSLRLSCAASGFTFFNYEMAWARQAPGKGLEWVSLISAEGTRTYYADSVKGRFTISRDNSKNTLYLQMNSLRAEDTAVYYCAKRRDASMGHTTRRFDYWGQGTLVTVSS | binds | –
12 | DOM23h-262-10 (other) VH: EVQLLESGGGLVQPGGSLRLSCAASGFTFFNYEMAWARRAPGKGLEWVSLISADGTRTYYANSVRGRFTISRDNSKNTLYLQMNSLRAEDTAVYYCAKRRDASMGHTTRRFDYSGQGTLVTVSS | – | potency in the A549 IL-11 release assay relative to DOM23h-262 [4]: 540 fold
13 | DOM23h-439-6 (other, VH dAb, already contains K64R) VH: EVQLLESGGGLVRPGGSLRLSCAASGFTFGTEQMWWVRQAPGKGLEWVSRIDSPGGRTYYADSVRGRFTISRDNSKNTLYLQMNSLRAEDTAVYYCAKRHAAGVSGTYFDYWGQGTLVTVSS | – | binding result [5]: binds
14 | DOM23h-439 (other, VH dAb) VH: EVQLLESGGGLVQPGGSLRLSCAASGFTFGTEQMWWVRQAPGKGLEWVSRIDSPGGRTYYADSVKGRFTISRDNSKNTLYLQMNSLRAEDTAVYYCAKRHAAGVSGTYFDYWGQGTLVTVSS | binds | –
15 | DOM23h-439-8 (other, VH dAb; also called DM23h-439-8; DOM23h-439-6 + D61N + K64R) VH: EVQLLESGGGLVRPGGSLRLSCAASGFTFGTEQMWWVRQAPGKGLEWVSRIDSPGGRTYYANSVRGRFTISRDNSKNTLYLQMNSLRAEDTAVYYCAKRHAAGVSGTYFDYWGQGTLVTVSS | – | binding result [6]: binds
16 | DOM23h-438 (other, Naive dAb) EVQLLESGGGLVQPGGSLRLSCAASGFTFAQGDMWWVRQAPGKGLEWVSRIGMDGDKTYYADSVKGRFTISRDNSKNTLYLQMNSLRAEDTAVYYCAKGPSSTSPFDYWGQGTLVTVSS | binds | –
17 | DOM23h-271-3 (other, VH dAb) VH: EVQLLESGGGLVQPGGSLRLSCTASGFTFTEYRMWWVRQAPGKGLEWVSLIEPIGNRTYYADSVKGRFTISRDNSKNTLYLQMNSLRAEDTAVYYCAKQIPGHMWTANPRSDYWGQGTQVTVSS | – | binding result [7]: binds
18 | DOM23h-271 (other, VH dAb) VH: EVQLLESGGGLVQPGGSLRLSCAASGFTFTEYRMWWVRQAPGKGLEWVSSIEPIGNRTYYADSVKGRFTISRDNSKNTLYLQMNSLRAEDTAVYYCAKQIPGHKWTANSRFDYWGQGTLVTVSS | binds | –
19 | DOM23h-271-12 (other, VH dAb; also called DOM23h-271-3 + D61N + K64R) VH: EVQLLESGGGLVQPGGSLRLSCTASGFTFTEYRMWWVRQAPGKGLEWVSLIEPIGNRTYYANSVRGRFTISRDNSKNTLYLQMNSLRAEDTAVYYCAKQIPGHMWTANPRSDYWGQGTQVTVSS | – | binding result [6]: binds
